Key:
[1] = biological target: His-KLP64DS (6xHis-tagged KLP64D stalk) (Drosophila) (UniProt Q9VRK9); assay: SEC; affinity purified heterodimer on HiLoad 16/60 Superdex 75 pg in 20 mM Tris-Cl pH 7.5, 5 mM MgCl2, 500 mM NaCl, 2.5 mM DTT, 1 ml/min; fractions on SDS-PAGE, band intensities compared
[2] = biological target: His-KLP68DS (6xHis-tagged KLP68D stalk) (Drosophila); assay: as above

Row | Molecule | stoichiometry N [1] | stoichiometry N [2]
1 | KLP68DS (KLP68D stalk, untagged) (domain or fragment) | 1 | 
2 | KLP64DS (KLP64D stalk, untagged) (domain or fragment) PKKKREKTDAEKEELAKRKNEHQKEIEHAKTEQETLRNKLVSLEGKILVGGENLLEKAQTQELLLEQSIAELEQHEKSEEALKQTLQQKATERIDIEERYSTLQDASTGITKKIHRVMQMLMGVKSELADQQQEHQREKEGIYENIRSLSRELALCELVLNSYVP |  | 1
